In patent US20070036750A1:

Assays:
[1] = molecular target: human CCR2 (full-length, Genbank Accession No. NM-000648) on membranes of Ba/F3-hCCR2 cells (human) (UniProt P41597); assay: competition with 30 pM radioiodinated human MCP1, SPA, Ba/F3-hCCR2 cell membranes
[2] = molecular target: human CCR2 (full-length, Genbank Accession No. NM-000648) on membranes of Ba/F3-hCCR2 cells (human) (UniProt P41597); assay: competition with radioiodinated human MCP1, SPA, membranes of cells containing CCR2

| IC50 [1] [nM] | Ki [1] [nM] | fold less potent than unlabeled rhMCP1 [2] [fold] | Substance |
| --- | --- | --- | --- |
| 0.624 | 0.287 | 5 to 12 | hMCP1-mIg (NH2-human MCP1-Mouse Ig Heavy chain γ1 (hinge-CH2-CH3)-COOH) (Fc fusion) |
| 0.183 | 0.0845 |  | Recombinant human MCP1 (rhMCP1) (R & D Systems) (from UniProt P13500 24-99) (ligand) |
